# Assay results: article PMC10914751
# Molecular target: Plk4 CPB (in vitro binding, Supplementary Fig. 3i)
# Sequence (O00444 whole entry): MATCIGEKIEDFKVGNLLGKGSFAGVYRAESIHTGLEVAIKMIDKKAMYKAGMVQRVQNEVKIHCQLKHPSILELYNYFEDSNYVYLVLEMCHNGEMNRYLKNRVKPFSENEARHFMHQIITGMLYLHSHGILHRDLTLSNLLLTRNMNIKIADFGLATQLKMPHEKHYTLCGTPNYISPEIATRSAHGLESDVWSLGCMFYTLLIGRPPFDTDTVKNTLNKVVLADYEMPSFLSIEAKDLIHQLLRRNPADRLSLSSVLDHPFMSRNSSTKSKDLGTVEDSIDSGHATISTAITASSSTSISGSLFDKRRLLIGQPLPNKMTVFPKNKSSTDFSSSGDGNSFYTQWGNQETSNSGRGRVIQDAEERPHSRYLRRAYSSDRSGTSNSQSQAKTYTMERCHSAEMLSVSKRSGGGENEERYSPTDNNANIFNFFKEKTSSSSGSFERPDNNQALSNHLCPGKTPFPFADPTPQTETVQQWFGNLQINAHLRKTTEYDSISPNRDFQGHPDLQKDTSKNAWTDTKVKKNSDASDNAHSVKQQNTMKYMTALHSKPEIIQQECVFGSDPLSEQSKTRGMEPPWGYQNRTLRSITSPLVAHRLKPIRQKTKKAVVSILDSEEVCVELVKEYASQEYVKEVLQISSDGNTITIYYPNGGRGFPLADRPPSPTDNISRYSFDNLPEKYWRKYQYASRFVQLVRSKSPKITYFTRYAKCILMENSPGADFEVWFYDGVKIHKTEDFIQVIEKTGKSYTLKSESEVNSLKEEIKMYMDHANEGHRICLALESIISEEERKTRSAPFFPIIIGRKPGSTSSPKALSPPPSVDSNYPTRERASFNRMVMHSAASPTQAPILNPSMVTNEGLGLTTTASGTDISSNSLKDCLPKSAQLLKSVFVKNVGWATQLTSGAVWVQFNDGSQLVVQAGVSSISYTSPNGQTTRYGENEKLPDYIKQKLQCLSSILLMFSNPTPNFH
substance,measurement,value
recombinant Vpr (from UniProt P12520 1-96) (natural protein),"in vitro kinase assay: trans-autophosphorylation of the SSTT motif (S698, S700, T704, T707) of GST-Plk4(1–836; ∆PB3) in the presence of Vpr•VprBP, but not Vpr(1–79)•VprBP; anti-p-SSTT immunoblot",1.8 fold
